{"source": "patent US20080139477", "biological_target": "Flag-tagged collagen type III fusion protein (Flag-helix-C-tel-C-pro) expressed from YEpFlagCOLIII1.6 kb (UniProt P02461)", "sequence (P02461 other isoform, or with tags, fused parts or gaps)": "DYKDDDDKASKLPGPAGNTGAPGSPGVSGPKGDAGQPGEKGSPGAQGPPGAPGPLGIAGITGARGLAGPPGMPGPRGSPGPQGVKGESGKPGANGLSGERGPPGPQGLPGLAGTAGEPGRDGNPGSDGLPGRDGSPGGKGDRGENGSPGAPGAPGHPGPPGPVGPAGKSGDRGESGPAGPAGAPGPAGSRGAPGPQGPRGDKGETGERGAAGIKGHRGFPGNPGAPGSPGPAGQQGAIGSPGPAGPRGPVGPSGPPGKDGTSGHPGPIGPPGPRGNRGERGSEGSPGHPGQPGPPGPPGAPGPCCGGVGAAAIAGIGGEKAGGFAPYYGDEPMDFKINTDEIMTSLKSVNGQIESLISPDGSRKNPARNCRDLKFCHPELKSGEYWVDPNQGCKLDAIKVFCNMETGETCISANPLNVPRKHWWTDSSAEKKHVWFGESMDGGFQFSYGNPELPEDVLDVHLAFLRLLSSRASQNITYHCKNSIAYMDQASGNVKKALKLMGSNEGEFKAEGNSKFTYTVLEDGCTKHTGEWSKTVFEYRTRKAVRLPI"}
{"substance": "prolyl-4-hydroxylase (P4H, α2β2) expressed from pYEUra3.2.12β#39α#5", "values": [{"measurement": "hydroxyproline by amino acid analysis of the 60 kDa band", "value": "Amino acid analysis revealed the presence of hydroxyproline in this material from co-transformants ... after induction with 0.2% galactose but no hydroxyproline was detected with protein from control samples"}]}
